{"source": "patent US10765616B2", "about": "“Oral formulation of polyglucosamine derivatives in combination with a non-fermentable sugar” (SYNEDGEN, INC., priority 2013, dated 2020)", "molecules": {"B1": {"name": "lactoferrin (protein, UniProt P02788 20-710, looked up)", "Lactotransferrin": "GRRRSVQWCAVSQPEATKCFQWQRNMRKVRGPPVSCIKRDSPIQCIQAIAENRADAVTLDGGFIYEAGLAPYKLRPVAAEVYGTERQPRTHYYAVAVVKKGGSFQLNELQGLKSCHTGLRRTAGWNVPIGTLRPFLNWTGPPEPIEAAVARFFSASCVPGADKGQFPNLCRLCAGTGENKCAFSSQEPYFSYSGAFKCLRDGAGDVAFIRESTVFEDLSDEAERDEYELLCPDNTRKPVDKFKDCHLARVPSHAVVARSVNGKEDAIWNLLRQAQEKFGKDKSPKFQLFGSPSGQKDLLFKDSAIGFSRVPPRIDSGLYLGSGYFTAIQNLRKSEEEVAARRARVVWCAVGEQELRKCNQWSGLSEGSVTCSSASTTEDCIALVLKGEADAMSLDGGYVYTAGKCGLVPVLAENYKSQQSSDPDPNCVDRPVEGYLAVAVVRRSDTSLTWNSVKGKKSCHTAVDRTAGWNIPMGLLFNQTGSCKFDEYFSQSCAPGSDPRSNLCALCIGDEQGENKCVPNSNERYYGYTGAFRCLAENAGDVAFVKDVTVLQNTDGNNNEAWAKDLKLADFALLCLDGKRKPVTEARSCHLAMAPNHAVVSRMDKVERLKQVLLHQQAKFGRNGSDCPDKFCLFQSETKNLLFNDNTECLARLHGKTTYEKYLGPQYVAGITNLKKCSTSPLLEACEFLRK"}}, "key": {"[1]": {"tested_on": "S. mutans biofilms", "test": "MBEC peg biofilm biomass reduction assay of active ingredients (twice daily, OD595)", "format": "cell-based, Streptococcus mutans", "conditions": "2 minutes, 8-hour interval, 32 μg/mL PAAG, 1.5% hydrogen peroxide, alcohol, lactoferrin, chlorhexidine", "method": "The S. mutans biofilms were grown according to MBEC™ for High-throughput Screening methods (Innovotech) on a hydroxyapatite-coated peg lid placed in trough containing BHI media supplemented with 1% sucrose rocking for 72 hours. The pegs were treated twice daily with PAAG (30% functionalized, 86 kD) active ingredients (FIG. 9) at 8-hour intervals for 2-minutes. The biofilms were rinsed in PBS, and the pegs were removed and placed into 200 μl 95% ethanol each for 2 minutes to fix the biofilms. The MBEC-HTP biofilms were stained with 150 μl of 3% Crystal Violet dye each for 2 minutes, and rinsed five times with PBS. It was noted that chlorhexidine appears to “fix” the biofilm to the pegs. The bacteria may or may not be viable because OD measured biofilm biomass, not viable CFUs. The stained and rinsed MBEC-HTP biofilms were then placed in 150 μL ethanol for 1-minute to remove the dye/biofilm. Then 100 μL of the ethanol and dyed biofilm suspension was placed into a 96-well plate and the OD595 was measured to quantify the remaining stained biofilm biomass."}, "[2]": {"tested_on": "A431 epithelial cells", "method": "Human epithelial cell monolayers of A431 (ATCC CRL-1555) were seeded in tissue culture treated 96-well plates at a density of 2×10^4 cells/well in DMEM media supplemented with 10% FBS, 1% Penicillin-Streptomycin, and 1% Amphotericin B. Seeded cells were incubated at 37° C. with 5% CO2 for 48 hours. The media was removed and replaced with serum-free, antimicrobial-free media and rinsed one time for 30 seconds with PAAG Oral Formulation H, other oral products (Biotene, Corsodyl, Peroxyl, or Listerine), 32 μg/mL PAAG (30% functionalized, 86 kDa) and other active ingredients (0.029% lactoferrin, 0.2% chlorhexidine gluconate, 1.5% hydrogen peroxide, or 20% alcohol). Epithelial cell viability was determined by ATPLite Luminescence ATP Detection Assay System (PerkinElmer). Testing was done in duplicate.\nEpithelial cell viability was compared between PAAG and other oral active ingredients and oral rinse products. Human epithelial cell monolayers were rinsed once for 30 seconds with each treatment. Following treatment, the epithelial cells were evaluated with ATP LITE Luminecence assay that measured viability via ATP. The data was normalized to untreated cells to compare percent survival (FIG. 4). […] Epithelial cell viability was determined by ATPLite Luminescence ATP Detection Assay System (Perkin Elmer) and compared to media rinsed cells."}, "[3]": {"tested_on": "S. mutans biofilms", "test": "Comparative biofilm reduction study of oral rinses and active ingredients (MBEC pegs)", "format": "cell-based, Streptococcus mutans", "conditions": "72 h S. mutans biofilms, treated 2 minutes twice (6-hour interval), vs water control, active ingredients at the concentration printed in the row or sentence", "method": "Biofilms of S. mutans were grown on hydroxyapatite-coated pegs according to MBEC Assay™ methods for 72 hours, and then treated with the oral rinses or a water control. The corresponding active ingredients were also evaluated. The biofilms were exposed for 2-minutes, twice in a 6-hour interval to evaluate biofilm removal. Following treatment, biofilms were rinsed, fixed, and stained with 0.4% Crystal Violet, and remaining biofilm was quantitated via CFU or OD595 (Beenken and Smeltzer, 2003). Biofilms were analyzed in triplicate in at least 3 independent assays. Ratios were averaged from all assays and the percent biofilm reduced and standard error compared to water control is shown."}}}
{"molecule": "B1", "values": [{"measurement": "reduction in S. mutans biofilm biomass compared to water control", "setting": "[1]", "value": "did not significantly reduce"}, {"measurement": "epithelial cell viability", "setting": "[2]", "value": "maintain epithelial cell viability"}, {"measurement": "Percent (%) Biomass Reduced", "setting": "[3]", "value": "25.6 ± 4.3", "unit": "%"}, {"measurement": "Percent (%) Biomass Reduced", "setting": "[3]; listed as lactoferrin", "value": "25.6±4.3", "unit": "%"}]}
